Positions count from the first letter of the chain named. Where two headings read alike, the source gives them in different places.
How the values were obtained:
[1] = molecular target: T1, G4R1/RHAU (G4 Resolvase 1) (human, UniProt Q9H2U1 1-1008); experiment: EMSA
T1 sequence: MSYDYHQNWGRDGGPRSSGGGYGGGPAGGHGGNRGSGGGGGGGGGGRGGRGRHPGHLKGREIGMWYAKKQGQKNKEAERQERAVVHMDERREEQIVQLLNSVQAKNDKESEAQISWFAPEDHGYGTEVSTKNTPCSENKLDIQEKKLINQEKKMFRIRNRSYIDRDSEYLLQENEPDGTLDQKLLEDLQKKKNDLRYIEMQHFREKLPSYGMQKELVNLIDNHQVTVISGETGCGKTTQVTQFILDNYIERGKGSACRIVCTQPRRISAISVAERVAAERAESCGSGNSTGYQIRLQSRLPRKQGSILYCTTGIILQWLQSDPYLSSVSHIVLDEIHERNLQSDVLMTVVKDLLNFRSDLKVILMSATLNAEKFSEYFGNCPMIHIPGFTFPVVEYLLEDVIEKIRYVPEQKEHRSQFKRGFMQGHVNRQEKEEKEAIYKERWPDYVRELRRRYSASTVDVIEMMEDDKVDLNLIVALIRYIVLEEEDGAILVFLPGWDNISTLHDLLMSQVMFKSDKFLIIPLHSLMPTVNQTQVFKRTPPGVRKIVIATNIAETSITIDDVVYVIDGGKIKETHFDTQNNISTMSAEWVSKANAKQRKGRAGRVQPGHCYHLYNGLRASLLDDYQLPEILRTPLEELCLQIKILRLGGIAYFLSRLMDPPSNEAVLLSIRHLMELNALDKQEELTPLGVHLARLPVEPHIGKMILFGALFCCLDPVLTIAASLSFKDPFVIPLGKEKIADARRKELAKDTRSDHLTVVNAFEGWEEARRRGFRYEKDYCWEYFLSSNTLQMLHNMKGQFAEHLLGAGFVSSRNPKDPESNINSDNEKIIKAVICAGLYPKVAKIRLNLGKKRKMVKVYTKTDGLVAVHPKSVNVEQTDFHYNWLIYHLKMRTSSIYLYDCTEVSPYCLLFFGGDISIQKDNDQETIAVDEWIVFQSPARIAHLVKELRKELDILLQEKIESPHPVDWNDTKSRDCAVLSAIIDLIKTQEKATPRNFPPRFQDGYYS

[2] = molecular target: T1, G4R1/RHAU (G4 Resolvase 1); experiment: competition
[3] = molecular target: T2, G4R1/RHAU E335A (Walker B, ATPase-dead) (human, UniProt Q9H2U1 1-1008, E335A); experiment: EMSA
T2 sequence: T1 sequence with E335A

[4] = molecular target: T1, G4R1/RHAU (G4 Resolvase 1); experiment: EMSA; remark: listed apart in the source
[5] = molecular target: T1, G4R1/RHAU (G4 Resolvase 1); experiment: EMSA; remark: listed apart in the source
[6] = molecular target: T1, G4R1/RHAU (G4 Resolvase 1); experiment: competition; remark: listed apart in the source
[7] = molecular target: T1, G4R1/RHAU (G4 Resolvase 1); experiment: EMSA; remark: listed apart in the source

B1: c-Myc DNA 51-mer, unimolecular G4 (structured_DNA)
DNA: GGCCGCTTATGGGGAGGGTGGGGAGGGTGGGGAAGGTGGGGAGGAGACTCA
[1]
  Kd: 4.4 ± 0.6 pM
[2]
  IC50: 0.06 competitor:substrate molar ratio

B2: Poly A Zic1 DNA 47-mer, unimolecular G4 (structured_DNA)
DNA: AAAAAAAAAAGGGTGGGGGGGCGGGGGAGGCCGGGGAAAAAAAAAA
[1]
  Kd: 5.7 ± 0.2 pM
[3]
  binding result: binds
[4]
  Kd: 5 pM

B3: Poly A Zic1 47-mer, dimethyl sulfate treated (ssDNA)
DNA: B2 DNA
modifications: guanine N7 methylation (DMS)
[5]
  binding result: no binding

B4: Z33 tetramolecular G4-DNA (structured_DNA)
DNA: AAAGTGATGGTGGTGGGGGAAGGATTTTCGAAC
[6]
  IC50: 1 competitor:substrate molar ratio

B5: Poly T Zic1 DNA 47-mer, unimolecular G4 (structured_DNA)
DNA: TTTTTTTTTTGGGTGGGGGGGGCGGGGGAGGCCGGGGTTTTTTTTTT
[1]
  Kd: 2.4 ± 0.2 pM

B6: Scrambled Zic1 DNA 47-mer (ssDNA)
DNA: AGAAGAGAGAGAGTGAGAGAGACGAGAGAGGCCGAGAAGAGAGAGAG
[7]
  Kd: > 300 pM

— PMC3167620
